The results in this text go back to US20150374663A1 (UNIVERSITY OF ROCHESTER, published 2015).

Ends that are not written are not given here.

In test [1] the target is T1, type V tartrate-resistant acid phosphatase (TRAP) protein, immobilised on CM5 sensor chip. Kind of test: SPR, TRAP amine-coupled to CM5 chip, initial rate analysis of sensorgrams. A general note: SPR reads the build-up and loss of mass on a sensor chip optically.
Experimental: Surface plasmon resonance (SPR) is used to assess the affinity of peptide-functionalized polymers for TRAP. Series S Sensor CM5 Chips are functionalized with TRAP via 1-ethyl-3-(3-dimethylaminopropyl) carbodiimide (EDC)/N-hydroxysuccinimide (NHS) chemistry. Briefly, the chips, which have a carboxymethylated dextran functionality, are activated through the introduction of NHS and EDC. After activation, TRAP protein, at 30 μg/mL in sodium acetate (pH=5), is introduced to the surface. Ethanolamine-hydrochloric acid is used to quench unreacted carboxysuccinimide groups. Polymers are dissolved in running buffer of PBS with 0.005% Tween20. Polymers are analyzed in duplicate at different concentrations. Surface regeneration is achieved using 1-10 mM NaOH solutions as necessary. […] Sensorgram data (FIG. 22) are exported from the SPR evaluation software after smoothing data of injection events and analyzed. Response units (RU) are converted into concentrations for rate analysis using the equation:
Where S is the concentration of polymer bound to the TRAP-functionalized surface and MW is the molecular weight of the polymer. The binding rates of polymers to TRAP are determined in the initial linear portion of association, within two seconds of the start of injection. […]
Test [2] addresses T1, type V tartrate-resistant acid …. Description: SPR, TRAP-functionalized surface, binding curve fit.
Experimental: Quantitative analyses of peptide and polymer affinities were performed using SPR. […] The binding of any molecules to the surface of the sensor chips results in a change in the angle of incident light reflection, allowing highly-sensitive detection of miniscule amounts of ligand binding to the surface. Target affinity can be determined by introduction of increasing concentrations of the molecule to the surface (FIG. 38A and FIG. 38B). […] The binding response is measured and plotted against concentration, allowing for a fitting of the data by a binding curve. From this fitting, values such as the dissociation constant (KD) value can be determined. Through this technique, the affinity of peptides and peptide-functionalized polymers were analyzed.
Test [3] shares this target. Kind of test: SPR, TRAP amine-coupled to CM5 chip, steady-state response vs concentration fit.
Experimental: Surface plasmon resonance (SPR) is used to assess the affinity of peptides for TRAP. Series S Sensor CM5 Chips are functionalized with TRAP via 1-ethyl-3-(3-dimethylaminopropyl) carbodiimide (EDC)/N-hydroxysuccinimide (NHS) chemistry. Briefly, the chips, which have a carboxymethylated dextran functionality, are activated through the introduction of NHS and EDC. After activation, TRAP protein, at 30 μg/mL in sodium acetate (pH=5), is introduced to the surface. Ethanolamine-hydrochloric acid is used to quench unreacted carboxysuccinimide groups. Peptides are dissolved in running buffer of PBS with 0.005% Tween20. Peptides are analyzed in duplicate at different concentrations. Surface regeneration is achieved using a combination of 1 and 2 M NaCl and 1-50 mM NaOH solutions as necessary.
Target affinity can be determined by introducing increasing concentrations of the ligand to the surface. […] The binding response was measured and plotted against concentration (FIG. 4), allowing for a fitting of the data by a binding curve. From this fitting, values such as KD can be determined.
The target is the same in test [4]. Description: SPR, TRAP-functionalized surface, binding curve fit (n = 2, Ave. ± StDev).
In test [5] the target is T2, TRAP deposited by osteoclasts on human cortical bone wafers (human, UniProt P13686 22-325, limits assumed).
T2 construct: The protein is native TRAP deposited on bone, not purified; also called bone wafers decorated with TRAP; resorption pits
T2 sequence (looked up): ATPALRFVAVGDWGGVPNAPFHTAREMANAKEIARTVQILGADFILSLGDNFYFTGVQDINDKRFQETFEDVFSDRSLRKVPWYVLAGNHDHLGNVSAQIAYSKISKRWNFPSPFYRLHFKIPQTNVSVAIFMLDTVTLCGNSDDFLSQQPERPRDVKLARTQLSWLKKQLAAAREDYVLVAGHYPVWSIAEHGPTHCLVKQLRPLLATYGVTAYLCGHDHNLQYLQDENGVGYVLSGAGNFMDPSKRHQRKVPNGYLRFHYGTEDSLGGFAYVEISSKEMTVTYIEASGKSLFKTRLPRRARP
Kind of test: confocal imaging of fluorescently labeled peptide incubated overnight on human cortical bone wafers. On the procedure: Equal concentrations of fluorescently labeled TBP and SCP are prepared in 1× phosphate-buffered saline (PBS). Bone wafers are cut from cortical bone obtained from the femur of a human donor cadaver and incubated in peptide solutions overnight, washed twice with 1×PBS, and then visualized via confocal imaging. Stacked sections are compressed into 2D images to allow for qualitative analysis as in FIG. 3A through FIG. 3D.

B1: 10% TBP-functionalized PEG polymer (pTBP) of Table 4, M:CTA:I 300:1:0.1, Mn 40.1 kDa (other)
peptide: TPLSYLKGLVTVG-OH
modifications: not fully specified (N-terminus); also: copolymerized by RAFT with PEG methyl ether methacrylate (300 Da), ~9 peptides per chain, fluorescently labelled for bone-targeting studies, position not given here
notes: Random copolymer; Footnote e says it was used for the in vitro and in vivo bone-targeting studies, where it was fluorescently labeled; also called 10% TBP-functionalized polymer
On to B1, for which the dissociation constant (Kd) (in general, the equilibrium constant for the complex coming apart) in test [1] is 60 µM. This counts as double-digit micromolar.

B2: TRAP-binding peptide (TBP), TPLSYLKGLVTVG (peptide)
peptide: TPLSYLKGLVTVG-OH
modifications: also: fluorescent cadaverine label in bone wafer experiment, position not given here
notes: also called TRAP peptide
As for B2, the figures for the Kd in test [2], in test [3] and in test [4] were ~700 µM, ~200 µM and 795 µM, respectively.

B3: scrambled control peptide (SCP), VPVGTLSYLKLTG (peptide)
peptide: VPVGTLSYLKLTG-OH
modifications: not fully specified; also: fluorescent cadaverine label in bone wafer experiment, position not given here
notes: In the bone wafer experiment it carried a fluorescent cadaverine label; also called scrambled peptide
Regarding B3, in test [5], the binding result was “no binding”.
